The source of these data is PMC10345191.

Holding throughout (assay): cryo-EM structure
The target in experiment [1] is ConM SOSIP soluble gp140 Env trimer, unmodified (GMP) (HIV-1 (group M consensus)).
The target in experiment [2] is ConSOSL.UFO soluble gp140 Env trimer, unmodified (GMP) (HIV-1 (group M consensus)).
Experiment [3] has as its target EDC cross-linked ConM SOSIP soluble gp140 Env trimer (GMP) (HIV-1 (group M consensus)).
In experiment [4] the target is EDC cross-linked ConSOSL.UFO soluble gp140 Env trimer (GMP) (HIV-1 (group M consensus)).

As a reminder, the stoichiometry N is a count of units in the complex or per binding partner. In turn, “ConM SOSIP soluble gp140 Env trimer, unmodified (GMP) (complex)” showed a stoichiometry N in experiment [1] of 3.

For “ConSOSL.UFO soluble gp140 Env trimer, unmodified (GMP) (complex)”, the stoichiometry N in experiment [2] came out at 3.

On to “EDC cross-linked ConM SOSIP soluble gp140 Env trimer (GMP) (complex)”, for which the stoichiometry N in experiment [3] was 3.

Turning to “EDC cross-linked ConSOSL.UFO soluble gp140 Env trimer (GMP) (complex)”, in experiment [4], the stoichiometry N was 3.
